Results reported in patent US20030124571A1, “Novel human septin and uses therefor” (The Government of the United States of America, priority 2000, published 2003).

Assays:
caspase 3 = assay: Caspase 3 fluorescent activity assay with aldehyde inhibitor, all cells examined; assay type: cell-based
Procedure: (§1) Cells were seeded to 50% confluence in six-well plates in media containing 10% fetal calf serum overnight. Following 24 hours after transfection, cells media was changed to contain 1% fetal calf serum with or without 10 ng/ml TGF-β for additional 24 hours. Cells were treated with caspase 3 aldehyde inhibitor (Ac-DEVD-CHO) supplied with caspase 3 fluorescent activity kit according to the manufacturers' protocols (Pharmingen, San-Diego, Calif.). Results were read using FL-600 microplate fluorescence reader (Bio-Tek).

NRP-154 cells [1] = assay: Annexin-V apoptosis of GFP-sorted transfected NRP-154 cells; assay type: cell-based, rat; conditions: NRP-154 cells overexpressing ARTS
Procedure: (§2) Cells were seeded to 50% confluence in six-well plates in DMEM-F12 containing 10% fetal calf serum overnight.
(§3) ARTS whole cDNA in PCMV-sport vector was isolated from a human fetal cDNA library in the pcmv-sport vector (Gibco BRL Life Technologies). This vector is different from AU5 tagged vector.
(§4) The NRP-154 and M-NRP1 cells were cotransfected with a total of 2 μDNA, 1 μg ARTS-pcmv-sport and 1 μg a GFP vector (Clontech, Palo-Alto, Calif.), a marker for transfected cells, using Lipofectamine (Gibco BRL Life Technologies, Gaithersburg, Md.) or FuGENE 6 (Boehringer-Mannheim) according to the manufacturer's protocol.
(§5) After 24 hours, cells media was changed to contain 1% fetal calf serum with or without 10 ng/ml TGF-β for an additional 24 hours.
(§6) GFP-positive cells were sorted using FACS.
(§7) The sorted population was stained with streptavidin-sulforhodamin.
(§8) The number of apoptotic cells was measured using the TACS Annexin-V-biotin (Trevigen, Gaithersburg, Md.).

COS cells [2] = assay: TUNEL assay of transfected COS cells; assay type: cell-based, monkey; conditions: transfected COS cells, 10 ng/ml TGF-β for 24 hours
Procedure: COS cells were cultured as previously described (Section E, above). […] When these cells are transfected with ARTS and treatment with TGF-β they are induced to cell death.
COS cells were then transfected with control vector or wildtype ARTS, essentially as described above, and treated with 10 ng/ml TGF-β for 24 hours.
The apoptotic response of COS cells to TGF-β was assessed by a TUNEL assay ([…], now Roche, Indianapolis, Ind.) following the manufacturer's instructions.
COS cells were cultured and transfected, as described above, with equal concentrations of either pcDNA3 control vector, ARTS or M-ARTS-pcDNA3 using the Lipofectamine transfection reagent (Gibco BRL Life Technologies, Gaithersburg, Md.). The cells were treated with 1 o ng/ml TGF-β for 24 hours.
Apoptosis was examined in a TUNEL assay (Boehringer-Mannheim), according to the manufacturer's instructions.

caspase 3 in A549 cells = assay: Caspase 3 fluorescent activity assay, A549 cells; assay type: cell-based, human; conditions: overexpression of ARTS, following TGF-β treatment
Procedure: as §1

[3] = test system: caspase 3 in NRP-154 cells; assay: Caspase 3 fluorescent activity assay, NRP-154 cells; assay type: cell-based, rat; conditions: 10 ng/ml TGF-β 24 hours
Procedure: as §1

[4] = test system: 3TP-Lux promoter construct in NRP-154 cells; assay: p3TP-Lux reporter luciferase assay with ARTS cotransfection, NRP-154 cells; assay type: cell-based, rat; conditions: 10 ng/ml TGF-β 24 hours
Procedure: (§9) NRP-154 and FaO cells were seeded to 50% confluence in six-well plates in DMEM-F12 or DMEM, respectively, containing 10% fetal calf serum overnight.
(§10) Antisense- and sense-ARTS were generated by PCR using ARTS cDNA containing the 5′UTR of ARTS as a template. The PCR fragments were subcloned into the Bam H1-Eco R1 sites of pcDNA3 vector containing the Pcmv promotor (invitrogen, Carlsbad, Calif.).
(§11) NRP-154 cells and FaO cells were transfected with lug/sample p3TP-Lux reporter (a gift from Dr. Joan Massague), which contains 3 repeats of an AP-1 site from the collagenase promoter linked to a short region of the PAI-1 promoter along with equal concentrations of either pcDNA3 control vector (PGL2 vector commercially available from Promega, Madison, Wis.) or the ARTS-pcDNA3 construct, described above.
(§12) The cells were then treated with 10 ng/ml TGF-β for 24 hours.
(§13) After 24 hours, a cell lysate was prepared essentially as described in Part C, above.
(§14) Luciferase activity was determined in the cell lysate using an assay kit (BD Pharmingen, San Diego, Calif.), and a MLX Microtiter plate luminometer (Dynex Technologies, Chantilly, Va.). […]
(§15) Experiments were repeated three times with similar results. The results are expressed as the mean (±SEM) of duplicate luciferase assay, corrected for transfection efficiency.

M-NRP1 cells = assay: Annexin-V apoptosis of GFP-sorted transfected M-NRP1 cells; assay type: cell-based, rat; conditions: M-NRP1 cells transfected with wildtype ARTS, 10 ng/ml TGF-β 24 hours
Procedure: as §2, §3, §4, §5, §6, §7, §8

[5] = test system: 3TP-Lux promoter construct in FaO rat hepatoma cells; assay: p3TP-Lux reporter luciferase assay with ARTS cotransfection, FaO cells; assay type: cell-based; conditions: 10 ng/ml TGF-β 24 hours
Procedure: as §9, §10, §11, §12, §13, §14, §15

COS cells [6] = assay: Apoptosis (nuclear fragmentation, immunofluorescence) of COS cells transfected with ARTS constructs; assay type: cell-based, monkey
Procedure: A C-terminal deletion construct lacking the last 24 amino acids of the ARTS protein was constructed and its apoptotic activity in COS cells was examined. […] Thus, the truncated construct is both more rapid in translocating to the nucleus and in inducing apoptosis in response to TGF-β.
COS cells were cultured as desribed previously (Section E, above) and cotransfected with either empty empty AU5 vector (based on pcDNA3 vectors provided by Dr. Silvio Gukind) or ARTS-AU5 with X-vector. ARTS-AU5 was prepared as desribed above. X-vector is a general term to describe any other vector which was cotransfected together with ARTS to asses its effect on ARTS activity.
24 hours after transfection, cell media was changed to contain 1% fetal calf serum with or without 10 ng/ml TGF-β and the cells were incubated for another 24 hours. The cells were then washed twice with PBS and fixed with 4% paraformaldehyde in PBS. Cells were blocked with 5% BSA in PBS for 30 minutes, then incubated with anti-AU5 fluroescein antibodies (Babco, Richmond, Calif.). The cells were also counterstained with DAPI for counting of fragmented nuclei.

caspase 3 in COS cells = assay: Caspase 3 fluorescent activity assay, COS cells; assay type: cell-based, monkey; conditions: overexpression of construct, following treatment with TGF-β
Procedure: as §1

NRP-154 cells [7] = assay: Immunofluorescence localization / nuclear translocation of ARTS constructs in NRP-154 cells; assay type: cell-based, rat; conditions: following TGF-β treatment
Procedure: (§16) NRP-154 and COS cells were cultured and transfected as described above, and transfected with an ARTS-AU5 tagged construct, essentially as described in Part D, above. The cells were then treated with 10 ng/ml TGF-β.
(§17) An immunofluorescence assay was performed essentially as described in Part G2, above using anti-AU5 antibodies (commercially available Babco, Richmond, Calif.). Anti-AU5 FITC-conjugated secondary antibodies (Pierce) were used to detect transfected ARTS.

COS cells [8] = assay: Immunofluorescence localization / nuclear translocation of ARTS constructs in COS cells; assay type: cell-based, monkey; conditions: in response to treatment with TGF-β
Procedure: as §16, §17

Ac-DEVD-CHO
TGF-β induced caspase activity (caspase 3): inbitited the TGF-β induced caspase activity

B1: ARTS: Apoptosis Related protein in the TGF-β Signaling pathway; 274 amino acid human septin, SEQ. ID. NO: 2, expressed by transfection (protein, listed as Homo sapiens)
chain: MIKRFLEDTTDDGELSKFVKDFSGNASCHPPEAKTWASRPQVPEPRPQAPDLYDDDLEFRPPSRPQSSDNQQYFCAPAPLSPSARPRSPWGKLDPYDSSEDDKEYVGFATLPNQVHRKSVKKGFDFTLMVAGESGLGKSTLVNSLFLTDLYRDRKLLGAEERIMQTVEITKHAVDIEEKGVRLRLTIVDTPGFGDAVNNTECWKPVAEYIDQQFEQYFRDESGLNRKNIQDNRVHCCLYFISPFGHGYGPSLRLLAPPGAVKGTGQEHQGQGCH
notes: Apoptosis Related protein in the TGF-β Signaling pathway; ID; NO: 2, expressed by transfection
effect on TGF-β induced apoptosis (NRP-154 cells [1]): lack of effect
TUNEL staining / competence to undergo apoptosis (COS cells [2]): strong TUNEL staining
caspase 3 activity (caspase 3 in A549 cells): marked increase in caspase 3 activity
caspase 3 activity [3]: no further effect
basal and TGF-β-induced luciferase activity (3TP-Lux) [4]: increased
sensitivity to TGF-β induced apoptosis (M-NRP1 cells): restored, in part, the sensitivity
basal and TGF-β-induced luciferase activity (3TP-Lux) [5]: increased
percent transfected apoptotic cells (COS cells [6]; COS cells, within 1 hour of TGF-β treatment): 18%
induction of apoptosis by overexpression alone (COS cells [6]; COS cells, without TGF-β): does not induce apoptosis
induction of apoptosis in transfected cells (COS cells [6]; cells treated with TGF-β): increased basal level and TGF-β-induced level of apoptosis
activation of caspase 3 (caspase 3 in COS cells): marked increase in the activation of caspase 3

B2: ARTS-AU5: AU5 tagged construct containing the entire ARTS coding sequence in pCEF-AU5 vector (protein)
chain: MIKRFLEDTTDDGELSKFVKDFSGNASCHPPEAKTWASRPQVPEPRPQAPDLYDDDLEFRPPSRPQSSDNQQYFCAPAPLSPSARPRSPWGKLDPYDSSEDDKEYVGFATLPNQVHRKSVKKGFDFTLMVAGESGLGKSTLVNSLFLTDLYRDRKLLGAEERIMQTVEITKHAVDIEEKGVRLRLTIVDTPGFGDAVNNTECWKPVAEYIDQQFEQYFRDESGLNRKNIQDNRVHCCLYFISPFGHGYGPSLRLLAPPGAVKGTGQEHQGQGCH
modifications: left off: small tags and cut ends
translocation to the nucleus (NRP-154 cells [7]): translocates to from the mitochondria to the nucleus
translocation to / localization in the nucleus (COS cells [8]): translocates to from the mitochondria to the nucleus
